The target of experiment [1] is B28-N^ε-octanoyl-Lys^B28Pro^B29 human insulin analog (human). The experiment can be described thus: sedimentation velocity (DCDT Plus), self-association, pH 8.0, first fit.
The target is the same in experiment [2]. The experiment in a line: sedimentation velocity (DCDT Plus), self-association, pH 8.0, refined fit.
In experiment [3] the target is B29-N^ε-octanoyl-Asp^B28 human insulin analog (human). The experiment can be described thus: sedimentation velocity (DCDT Plus, two Gaussian fit), self-association, pH 8.0.
Experiment [4] has the same target. The experiment can be described thus: sedimentation velocity (DCDT Plus, two Gaussian fit), self-association, pH 7.5; hexamer said not to be dominant.
Experiment [5] has the same target. The experiment in a line: sedimentation velocity (DCDT Plus, two Gaussian fit), self-association, pH 7.5; the model is the 27,700 g/mole species, not hexamer.
Experiment [6] concerns the target B29-N^ε-myristoyl-des(B30) human insulin (human) (UniProt P01308). The experiment can be described thus: sedimentation velocity (DCDT Plus, single Gaussian fit), self-association, pH 7.5; heterogeneous.
Experiment [7] shares this target. The experiment in a line: sedimentation velocity (DCDT Plus, single Gaussian fit), self-association, pH 7.97.
The target is the same in experiment [8]. The experiment in a line: sedimentation velocity, area of the profile compared with an ideal hypothetical hexamer curve, self-association, pH 8.0 (7.97).
Experiment [9] shares this target. The experiment can be described thus: sedimentation velocity (DCDT Plus, single Gaussian fit), self-association, pH 8.4.
The target of experiment [10] is B28-N^ε-myristoyl-Lys^B28Pro^B29 human insulin analog (human). The experiment can be described thus: sedimentation velocity, self-association, 10 mM Tris pH 7.96 (monomer 6,018 g/mole, theoretical hexamer 36,108 g/mole).
Experiment [11] has the same target. The experiment in a line: sedimentation velocity, self-association, 7 mM phosphate pH 7.95 (monomer 6,018 g/mole, theoretical hexamer 36,108 g/mole).
Experiment [12] has the same target. The experiment in a line: static light scattering, self-association, pH 8.0.
Experiment [13] shares this target. The experiment in a line: static light scattering, self-association, pH 8.5.
The target is the same in experiment [14]. The experiment can be described thus: static light scattering, self-association, pH 7.8.
Experiment [15] has the same target. The experiment in a line: sedimentation velocity analysed with DCDT Plus, self-association, pH 8.0.
Experiment [16] shares this target. The experiment in a line: static light scattering, self-association, pH 8.3.
For experiment [17] the target is unchanged. The experiment can be described thus: static light scattering, self-association, pH 7.5.

For “B28-N^ε-octanoyl-Lys^B28Pro^B29 human insulin analog (ligand)”, in [1], the molecular weight of association stood at 35300 g/mol. Further, in [2], the molecular weight of association turned out to be 40800 g/mol and the percent of data described by the hexamer model is greater than 94%.

With “B29-N^ε-octanoyl-Asp^B28 human insulin analog (ligand)”, in [3], the molecular weight of association stood at 33200 g/mol and the percent of data described by the hexamer model worked out at 85%. Besides, the molecular weight of association in experiment [4] worked out at 27700 g/mol. For the same substance, the percent of data described by the model in experiment [5] was greater than 92%.

In the case of “B29-N^ε-myristoyl-des(B30) human insulin (from UniProt P01308 25-110; P01308 25-110) (ligand)”, the MW (g/mole) of association in experiment [6] was 23000 g/mol; in experiment [7], 30700 g/mol; in experiment [9] it was 39000 g/mol. The substance further had a percent in the hexamer association state in [8] greater than 92 percent.

Regarding “B28-N^ε-myristoyl-Lys^B28Pro^B29 human insulin analog (ligand)”, the Calculated MW of association is 35000 g/mol in [10] and 34300 g/mol in experiment [11]. Besides, the Mw (weight-average molecular weight of association) in experiment [12] was 40400 g/mol; in experiment [13] it was 49100 g/mol; in experiment [14] it was 60700 g/mol; in experiment [16] it was 40400 g/mol; in [17] it was 127000 g/mol. The molecular weight of association in experiment [15] came to 34400 grams/mole. Moreover, the percent of data described by the hexamer model in experiment [15] is greater than 96%.

These data come from patent EP1146896B1.
